In patent EP1147413B1:

Biological target: mouse GDF-8 pro-domain without tag, lacking the signal peptide, released from WT-GDF-8-F in QM-7 cells (mouse) (UniProt O08689)
Test: cell-based or functional assay

Chain of UniProt O08689 (O08689 20-267 limits assumed): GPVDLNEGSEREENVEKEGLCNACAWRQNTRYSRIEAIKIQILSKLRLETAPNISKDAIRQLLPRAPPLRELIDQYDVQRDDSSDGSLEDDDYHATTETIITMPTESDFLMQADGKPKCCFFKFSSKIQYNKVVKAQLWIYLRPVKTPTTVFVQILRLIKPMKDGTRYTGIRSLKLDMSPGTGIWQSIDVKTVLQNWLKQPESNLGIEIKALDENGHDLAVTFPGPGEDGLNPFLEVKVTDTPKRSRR

- luciferase activity of affinity-purified GDF-8 complexes after 1U/ml m-calpain for 2 hours at 37° C, against the untreated control: 2.5 fold
Substance: m-calpain (enzyme)
